Experimental data taken from article PMC2716121 (Journal of molecular biology, 2009).
One block for each molecule: values may come before it.

Experiments:
Assay in all cases: AUC
[1] = target: PhoB^F20D, phosphorylated (Escherichia coli) (UniProt P0AFJ5)
[2] = target: Wild-type PhoB, phosphorylated (Escherichia coli) (UniProt P0AFJ5)
[3] = target: Wild-type PhoB, unphosphorylated (Escherichia coli) (UniProt P0AFJ5)
AUC = target: the molecule itself

Kd [1]: 2.8 µM
Molecule: PhoB^F20D, phosphorylated (from UniProt P0AFJ5 1-229) (natural protein)

Kd [3]: 378 µM
Molecule: Wild-type PhoB, unphosphorylated (from UniProt P0AFJ5 1-229) (natural protein)

More lines, now with the values behind:

Molecule: Wild-type PhoB, phosphorylated (from UniProt P0AFJ5 1-229) (natural protein)
Kd [2]: 5.1 µM

B1: PhoB^R91E/E111R, unphosphorylated (natural protein, Escherichia coli, UniProt P0AFJ5 1-229, looked up)
chain: MARRILVVEDEAPIREMVCFVLEQNGFQPVEAEDYDSAVNQLNEPWPDLILLDWMLPGGSGIQFIKHLKRESMTRDIPVVMLTARGEEEDEVRGLETGADDYITKPFSPKRLVARIKAVMRRISPMAVEEVIEMQGLSLDPTSHRVMAGEEPLEMGPTEFKLLHFFMTHPERVYSREQLLNHVWGTNVYVEDRTVDVHIRRLRKALEPGGHDRMVQTVRGTGYRFSTRF
binding result (AUC): binds

B2: PhoB^R91E/E111R, phosphorylated (natural protein, Escherichia coli, UniProt P0AFJ5 1-229, looked up)
chain: B1 chain
modifications: phosphorylated at D53 (site of phosphorylation) with phosphoramidate; 100% phosphorylated at steady state
binding result (AUC): binds
